Changes are numbered by the printed parent chain.
B1: 28F4 (antibody, V domains shown)
VH: EVQLVESGGDLVKPGGSLKLSCAASGFTFSNYGMSWVRQTPDKRLEWVATISSGGTYTYYPDSVKGQFTIFRDNAKNTLYLQMSSLKSEDTAMYYCTRRDYDYEGFAYWGQGTLVTVS
VL: DIVLTQSPATLSVTPGDSVSLSCRASQSISNNLHWYQQKSHESPRLLIKYASHSISGIPSRFSGSGSGTDFTLSINSVETEDFGMYFCQQSNNWPFTFGSGTKLEIKR
notes: Mouse hybridoma monoclonal tested as supernatant
B2: 18F7 (antibody, V domains shown)
VH: QVQLKESGPGLVAPSQSLSITCTVSGFSLTSYGVSWVRQPPGKGLEWLGIIWGDGSTNYHSVLKSRLSISKDNSKSQVFLKLNSLQTDDTATYYCAKQDFDVWGAGTTVTVSS
VL: DVQMIQSPFSLSASLGDIVTMTCQASQGTSINLNWFQQKPGKAPKLLIYGVSNLEDGVPSRFSGSRYGTDFTLTIGSLEDEDMATYFCLQHSYLPYTFGGGTKLEIKR
notes: as for B1
B3: Recombinant FVIIa (enzyme)
chain 1: ANAFLEELRPGSLERECKEEQCSFEEAREIFKDAERTKLFWISYSDGDQCASSPCQNGGSCKDQLQSYICFCLPAFEGRNCETHKDDQLICVNENGGCEQYCSDHTGTKRSCRCHEGYSLLADGVSCTPTVEYPCGKIPILEKRNASKPQGR
chain 2: IVGGKVCPKGECPWQVLLLVNGAQLCGGTLINTIWVVSAAHCFDKIKNWRNLIAVLGEHDLSEHDGDEQSRRVAQVIIPSTYVPGTTNHDIALLRLHQPVVLTDHVVPLCLPERTFSERTLAFVRFSLVSGWGQLLDRGATALELMVLNVPRLMTQDCLQQSRKVGDSPNITEYMFCAGYSDGSKDSCKGDSGGPHATHYRGTWYLTGIVSWGQGCATVGHFGVYTRVSQYIEWLQKLMRSEPRPGVLLRAPFP
notes: domain: light chain of FVIIa;domain: heavy chain of FVIIa; Untargeted control; also called rFVIIa; recombinant FVIIa alone (no targeting moiety)
B4: 28C2 (antibody, V domains shown)
VH: QVTLKASGPGIVQPSQTLSLTCSFSGFSLNTSGMGVGWIRQPSGKGLEWLAHIWWDDDKRYNPALKSRLTISKDTSNNQIFLKIASVDTADTATYYCARSHYYGTFYFDYWGQGTTLTVSS
VL: DVQITQSPSYLAASPGETITINCRASKSISKYLAWYQEKPGTTYKLLIYSGSTLQSGIPSRFSGSGSGTDFTLTISSLEPEDFAMYYCQQHIEYPWTFGGGTKLEIKR
notes: as for B1
B5: 9D6 (antibody, V domains shown)
VH: QVTLKESGPGILQPSQTLSLTCSFSGFSLSTSGMGVGWIRQSSGKGLEWLAHIWWDDDKRYNPTLKSRLTISKDTSNNQVFLKIANMDTADIATYYCARSHYNGTFYFDFWGQGITLTVSS
VL: B4 VL with T42K, Y44N, S77T
notes: as for B1
B6: 1H6 (antibody, V domains shown)
VH: QVQLQQSGAELVRPGTSVKVSCKASGYAFTNYLIEWVKQRPGQGLEWIGVINPGSGGTNYNEKFKGKATLTADKSSSTAYMHLSSLTSDDSAVYFCARGRYEWYFDVWGAGTTVTVSS
VL: DIQMTQTTSSLSASLGDRVTISCRASQDITNYLNWYQRKPDGTVKLLIYYTSRLHSGVPSRFSGSGSGTDYSLTISNLEQEDIATYFCQQGYTLPYTFGGGTKLEIKR
notes: as for B1
B7: 12B2 (antibody, V domains shown)
VH: QVQLQQSGAELTKPGASVKISCKATGYTFSSYWIEWVKQRPGHGLEWIGEILPGSGITKYNDKFKGKATFTADTSSNTAYMQLSSLTSEDSAVYSCARLISYYYAMDYWGQGTSVTVSS
VL: B6 VL with T30S, R38Q, Y92N, Y96P
notes: as for B1
B8: 38A8 (antibody, V domains shown)
VH: B6 VH with V37I, H82Q
VL: B6 VL with T30S, Q37L, R38Q, T74S
notes: as for B1
B9: 34D10 (antibody, V domains shown)
VH: EVKLVESGGGLVKPGGSLKLSCAASGFTFSAYAMSWVRQTPEKRLEWVASISSGGTTYYPDSVKRRFTISRDNARNILYLQMSSLRSEDTAMYYCTRGGDYGYALDYWGQGTSVTVSS
VL: ENVLTQSPAIMSASLGEKVTMSCRASSSVNYMYWYQQKSDASPKLWIYYTSNLAPGVPARFSGSGSGNSYSLTISSMEGEDAATYYCQQFSSSPWTFGGGTKLEIKR
notes: as for B1
B10: 4B11 (antibody, V domains shown)
VH: B9 VH with A31S, E46A, T56N, T57I, Y59F, R65G, N73D, S83R, T96A, L105M
VL: B9 VL with S22N, Y48F, T101S
notes: as for B1
B11: 36A8 (antibody, V domains shown)
VH: B9 VH with K3R, A31T, S52N, S53G, T56S, R65G, S83R, T96A
VL: B9 VL with S22N, Y48F, T101S
notes: as for B1

Biological target: T1, GPIIb/IIIa on human platelets (human, UniProt P08514 32-1039; P05106 27-788)
T1 construct: Native receptor on gel-purified human platelets or on platelets in citrated human whole blood; also called GPIIb/IIIa receptor
Assay: flow cytometry on platelets, hybridoma supernatant (signal higher than in ELISA)

| binding result | Binder |
| --- | --- |
| binds | B1 |
| binds | B2 |

Biological target: T2, GPIIb/IIIa nanodiscs (recombinant biotinylated, HPC4-tagged GPIIb/IIIa) (human, UniProt P08514 32-1039; P05106 27-788)
T2 construct: Transiently expressed in HEK293 cells, purified, and put into nanodiscs with scaffold protein and phospholipids; It carries a tag for in vivo biotinylation and an HPC4 tag; also called GPIIb/IIIa receptor; biotinylated GPIIb/IIIa receptor
Assay: SPR, biotinylated GPIIb/IIIa nanodiscs on a streptavidin chip

| binding result | Binder |
| --- | --- |
| no binding | B3 |

Biological target: T3, human GPIIb/IIIa (Calbiochem Cat No. 528240) (human, UniProt P08514 32-1039; P05106 27-788)
T3 construct: Bought purified protein coated on ELISA plates; How the α/β subunit specificity ELISA was set up is not described; also called αIIbβ3; glycoprotein IIb/IIIa
Assay: ELISA, hybridoma supernatant

| binding result | Binder |
| --- | --- |
| binds | B4 |
| binds | B5 |
| binds | B1 |
| binds | B2 |
| binds | B6 |
| binds | B7 |
| binds | B8 |
| binds | B9 |
| binds | B10 |
| binds | B11 |

Biological target: T1, GPIIb/IIIa on human platelets
Assay: flow cytometry, protein spiked into citrated human whole blood, FITC anti-FVII on CD42b-gated platelets

| binding result | Binder |
| --- | --- |
| no binding | B3 |

From US20160115234A1 (Biogen, published 2016)
